According to US20160051688A1 (Indiana University Research and Technology Corporation, priority 2010, published 2016):

How the values were obtained:
[1] = biological target: T1, GPR119 (Homo sapiens, UniProt Q8TDV5); settings: CHO cells expressing GPR119; cited from earlier work
T1 construct: expressed in transfected cells; host or cells: CHO
T1 sequence (Q8TDV5 1-335): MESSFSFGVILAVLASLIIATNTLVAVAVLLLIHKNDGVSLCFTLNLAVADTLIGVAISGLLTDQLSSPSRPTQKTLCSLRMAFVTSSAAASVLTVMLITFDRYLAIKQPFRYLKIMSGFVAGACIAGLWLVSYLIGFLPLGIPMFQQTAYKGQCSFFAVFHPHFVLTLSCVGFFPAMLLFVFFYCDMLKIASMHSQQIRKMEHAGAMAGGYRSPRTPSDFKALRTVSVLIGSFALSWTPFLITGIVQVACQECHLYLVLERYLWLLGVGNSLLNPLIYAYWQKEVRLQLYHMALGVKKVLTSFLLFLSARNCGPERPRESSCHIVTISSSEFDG

[2] = biological target: glucagon receptor (UniProt P47871); experiment: cell-based or functional assay
glucagon receptor, sequence (P47871 26-477 limits assumed): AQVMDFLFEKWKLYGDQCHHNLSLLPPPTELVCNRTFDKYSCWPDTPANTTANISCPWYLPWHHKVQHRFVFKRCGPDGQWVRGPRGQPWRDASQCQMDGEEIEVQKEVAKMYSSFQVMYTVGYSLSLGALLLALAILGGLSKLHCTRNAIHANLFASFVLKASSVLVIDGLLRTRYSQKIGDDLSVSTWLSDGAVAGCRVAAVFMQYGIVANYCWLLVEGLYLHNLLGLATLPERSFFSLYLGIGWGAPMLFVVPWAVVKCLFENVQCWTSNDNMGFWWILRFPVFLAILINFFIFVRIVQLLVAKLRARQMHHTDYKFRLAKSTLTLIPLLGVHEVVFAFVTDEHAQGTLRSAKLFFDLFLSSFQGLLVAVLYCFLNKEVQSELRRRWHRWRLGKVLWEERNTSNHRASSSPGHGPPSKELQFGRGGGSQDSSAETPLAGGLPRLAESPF

[3] = biological target: GLP-1 receptor (UniProt P43220); experiment: cell-based or functional assay
GLP-1 receptor, sequence (P43220 24-463 limits assumed): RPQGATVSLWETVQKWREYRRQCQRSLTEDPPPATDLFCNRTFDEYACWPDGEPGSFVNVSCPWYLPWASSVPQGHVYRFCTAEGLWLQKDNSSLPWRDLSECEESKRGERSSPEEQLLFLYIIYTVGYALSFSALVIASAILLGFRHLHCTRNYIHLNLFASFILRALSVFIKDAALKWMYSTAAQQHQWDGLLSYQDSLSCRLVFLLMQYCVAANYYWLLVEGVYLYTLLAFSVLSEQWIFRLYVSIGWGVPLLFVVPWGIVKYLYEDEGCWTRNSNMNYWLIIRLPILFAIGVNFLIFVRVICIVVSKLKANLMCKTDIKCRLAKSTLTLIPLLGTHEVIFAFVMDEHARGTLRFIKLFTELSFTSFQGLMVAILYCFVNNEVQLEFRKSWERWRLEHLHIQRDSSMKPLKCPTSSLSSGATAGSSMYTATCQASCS

**Q.** Which cAMP levels [1] does the source give for `CCCCCCCCCCCCCCCCOC[C@@H](O)COP(=O)([O-])OCC[N+](C)(C)C` [lyso-platelet activating factor] here?
**A.** increased cAMP levels

**Q.** Which results are given for “D9, K12E16(Lactam) glucagon(6-39) Cex peptide (Peptide 4 of Table 13)”?
**A.** Glu ICso [2]: 828 nM; Glucagon IC50 [2]: 828 nM; GLP-1 EC50 [3]: 18 nM; GLP-1 ECso [3]: 119 nM

**Q.** Which Glu ICso [2] does the source give for “E9, E16K20(lactam) glucagon(6-39) Cex peptide (Peptide 3 of Table 13)” here?
**A.** 42 nM

**Q.** What about the Glucagon IC50 [2] of the same compound?
**A.** 42 nM

**Q.** What about the GLP-1 EC50 [3] of the same compound?
**A.** 36 nM

**Q.** What about the GLP-1 ECso [3] of the same compound?
**A.** 36 nM

**Q.** With platelet-activating factor as the compound, how does the cAMP levels [1] read?
**A.** increased cAMP levels

**Q.** For “[E9, E16K20(lactam), D28]G(2~29) (peptide)”, which Glucagon IC50 (nM); PA = partial antagonist [2] is on record?
**A.** 49 nM

**Q.** For “E9, K12E16(lactam) glucagon(6-39) Cex peptide (Peptide 2 of Table 13)”, which Glu ICso [2] is on record?
**A.** 2010 nM

**Q.** And the Glucagon IC50 [2]?
**A.** 2010 nM

**Q.** What about the GLP-1 EC50 [3] of the same compound?
**A.** 63 nM

**Q.** What about the GLP-1 ECso [3] of the same compound?
**A.** 63 nM

**Q.** For “E9, K12, E16 glucagon(6-39) Cex peptide (Peptide 1 of Table 13)”, which Glu ICso [2] is on record?
**A.** 762 nM

**Q.** What about the Glucagon IC50 [2] of the same compound?
**A.** 762 nM
